Tests used:
Assay in all cases: two-hybrid library CCmax;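 further: natural log of median RNA to DNA barcode read ratio; higher means stronger binding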
4H3587-AA = biological target: T1, 4H3587-AA; settings: mean of both orientations
T1 chain: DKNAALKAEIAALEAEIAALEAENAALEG

4H3664-AA = biological target: T2, 4H3664-AA; settings: mean of both orientations
T2 chain: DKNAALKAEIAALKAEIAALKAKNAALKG

4H3922-AA = biological target: T3, 4H3922-AA; settings: mean of both orientations
T3 chain: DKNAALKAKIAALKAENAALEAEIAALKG

4H4038-AA = biological target: T4, 4H4038-AA; settings: mean of both orientations
T4 chain: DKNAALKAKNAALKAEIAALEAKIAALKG

4H390-AA = biological target: T5, 4H390-AA; settings: mean of both orientations
T5 chain: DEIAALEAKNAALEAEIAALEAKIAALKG

4H2705-AA = biological target: T6, 4H2705-AA; settings: mean of both orientations
T6 chain: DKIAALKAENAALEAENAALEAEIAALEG

4H2513-AA = biological target: T7, 4H2513-AA; settings: mean of both orientations
T7 chain: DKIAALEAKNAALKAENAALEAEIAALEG

4H3605-AA = biological target: T8, 4H3605-AA; settings: mean of both orientations
T8 chain: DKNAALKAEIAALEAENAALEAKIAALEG

4H233-AA = biological target: T9, 4H233-AA; settings: mean of both orientations
T9 chain: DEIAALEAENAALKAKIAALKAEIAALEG

4H2187-AA = biological target: T10, 4H2187-AA; settings: mean of both orientations
T10 chain: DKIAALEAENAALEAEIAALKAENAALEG

4H2736-AA = biological target: T11, 4H2736-AA; settings: mean of both orientations
T11 chain: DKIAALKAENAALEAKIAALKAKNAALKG

4H87-AA = biological target: T12, 4H87-AA; settings: mean of both orientations
T12 chain: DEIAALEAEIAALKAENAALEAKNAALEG

4H335-AA = biological target: T13, 4H335-AA; settings: mean of both orientations
T13 chain: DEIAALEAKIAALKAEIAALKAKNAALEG

4H2078-AA = biological target: T14, 4H2078-AA; settings: mean of both orientations
T14 chain: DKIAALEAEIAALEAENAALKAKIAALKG

P6-AA-1HGe-H = biological target: T15, P6-AA-1HGe-H; settings: mean of both orientations
T15 chain: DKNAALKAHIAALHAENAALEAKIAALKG

AP8-AA = biological target: T16, AP8-AA; settings: mean of both orientations
T16 chain: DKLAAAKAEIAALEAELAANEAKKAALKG

AP6-AA = biological target: T17, AP6-AA; settings: mean of both orientations
T17 chain: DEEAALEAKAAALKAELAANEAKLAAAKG

P6-AA-1HGe-D = biological target: T18, P6-AA-1HGe-D; settings: mean of both orientations
T18 chain: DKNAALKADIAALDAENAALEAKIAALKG

P6-AA-1HAA-Y = biological target: T19, P6-AA-1HAA-Y; settings: mean of both orientations
T19 chain: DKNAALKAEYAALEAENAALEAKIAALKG

P6-AA-12HAA-H = biological target: T20, P6-AA-12HAA-H; settings: mean of both orientations
T20 chain: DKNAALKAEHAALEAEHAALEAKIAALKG

P6-AA-12HAA-K = biological target: T21, P6-AA-12HAA-K; settings: mean of both orientations
T21 chain: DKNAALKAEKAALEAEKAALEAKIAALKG

P6-AA-12HAA-V = biological target: T22, P6-AA-12HAA-V; settings: mean of both orientations
T22 chain: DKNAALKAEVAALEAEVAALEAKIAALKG

4H465-AA = biological target: T23, 4H465-AA; settings: mean of both orientations
T23 chain: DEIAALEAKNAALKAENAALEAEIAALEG

4H355-AA = biological target: T24, 4H355-AA; settings: mean of both orientations
T24 chain: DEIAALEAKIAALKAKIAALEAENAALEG

4H1360-AA = biological target: T25, 4H1360-AA; settings: mean of both orientations
T25 chain: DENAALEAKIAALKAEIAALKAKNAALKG

4H3651-AA = biological target: T26, 4H3651-AA; settings: mean of both orientations
T26 chain: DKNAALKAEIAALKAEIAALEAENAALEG

O5-AA = biological target: T27, O5-AA; settings: mean of both orientations
T27 chain: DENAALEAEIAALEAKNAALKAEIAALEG

O8-AA = biological target: T28, O8-AA; settings: mean of both orientations
T28 chain: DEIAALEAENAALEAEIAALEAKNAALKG

4H1348-AA = biological target: T29, 4H1348-AA; settings: mean of both orientations
T29 chain: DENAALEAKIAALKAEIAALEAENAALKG

4H971-AA = biological target: T30, 4H971-AA; settings: mean of both orientations
T30 chain: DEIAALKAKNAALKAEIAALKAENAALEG

4H2283-AA = biological target: T31, 4H2283-AA; settings: mean of both orientations
T31 chain: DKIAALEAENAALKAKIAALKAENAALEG

4H3709-AA = biological target: T32, 4H3709-AA; settings: mean of both orientations
T32 chain: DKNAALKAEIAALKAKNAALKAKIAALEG

4H1142-AA = biological target: T33, 4H1142-AA
T33 chain: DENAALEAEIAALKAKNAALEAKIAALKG

4H3340-AA = biological target: T34, 4H3340-AA; settings: mean of both orientations
T34 chain: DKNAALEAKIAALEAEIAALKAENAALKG

4H688-AA = biological target: T35, 4H688-AA; settings: mean of both orientations
T35 chain: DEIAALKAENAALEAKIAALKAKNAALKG

P5-AA-1HAA-R = biological target: T36, P5-AA-1HAA-R; settings: mean of both orientations
T36 chain: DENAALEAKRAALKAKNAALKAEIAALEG

P5-AA-12HGe-H = biological target: T37, P5-AA-12HGe-H; settings: mean of both orientations
T37 chain: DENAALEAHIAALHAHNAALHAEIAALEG

P5-AA-12HGe-E = biological target: T38, P5-AA-12HGe-E; settings: mean of both orientations
T38 chain: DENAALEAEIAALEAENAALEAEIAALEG

P5-AA-12HGe-Y = biological target: T39, P5-AA-12HGe-Y; settings: mean of both orientations
T39 chain: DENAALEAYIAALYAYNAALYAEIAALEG

P5-AA-1HGe-T = biological target: T40, P5-AA-1HGe-T; settings: mean of both orientations
T40 chain: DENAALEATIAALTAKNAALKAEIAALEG

P5-AA-1HGe-W = biological target: T41, P5-AA-1HGe-W; settings: mean of both orientations
T41 chain: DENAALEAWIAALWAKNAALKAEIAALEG

4H3974-AA = biological target: T42, 4H3974-AA; settings: mean of both orientations
T42 chain: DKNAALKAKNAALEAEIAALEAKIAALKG

B1: 4H1350-AA (peptide)
chain: DENAALEAKIAALKAEIAALEAKIAALKG
interaction score (4H3587-AA): 1.39
interaction score (4H3664-AA): 0.037
interaction score (4H3922-AA): -0.898
interaction score (4H4038-AA): 0.909
interaction score (4H390-AA): 0.523
interaction score (4H2705-AA): -1.8
interaction score (4H2513-AA): -1.31
interaction score (4H3605-AA): -0.433
interaction score (4H233-AA): 0.257
interaction score (4H2187-AA): -1.97
interaction score (4H2736-AA): -1.22
interaction score (4H87-AA): -0.16

B2: 4H1153-AA (peptide)
chain: DENAALEAENAALEAEIAALEAEIAALEG
interaction score (4H335-AA): -0.418
interaction score (4H2078-AA): -0.975

B3: 4H1401-AA (peptide)
chain: DENAALEAKIAALKAKNAALKAEIAALEG
interaction score (P6-AA-1HGe-H): 1.77
interaction score (AP8-AA): -0.198
interaction score (AP6-AA): -1.73
interaction score (4H2078-AA): 1.93
interaction score (P6-AA-1HGe-D): 1.88
interaction score (P6-AA-1HAA-Y): 2.37

B4: 4H1385-AA (peptide)
chain: DENAALEAKIAALKAKIAALKAEIAALEG
interaction score (4H3587-AA): 1.58
interaction score (P6-AA-12HAA-H): 1.75
interaction score (P6-AA-12HAA-K): 2.03
interaction score (4H4038-AA): 1.56
interaction score (4H2705-AA): -1.8
interaction score (4H2736-AA): -0.116
interaction score (P6-AA-12HAA-V): 2.15

B5: 4H1257-AA (peptide)
chain: DENAALEAENAALKAKIAALKAEIAALEG
interaction score (4H465-AA): -0.726
interaction score (4H355-AA): -1.88
interaction score (4H1360-AA): -0.666
interaction score (4H3651-AA): -1.01

B6: 4H171-AA (peptide)
chain: DEIAALEAENAALEAKIAALKAENAALEG
interaction score (O5-AA): -0.0194
interaction score (O8-AA): 0.645

B7: 4H2165-AA (peptide)
chain: DKIAALEAEIAALKAKNAALEAKIAALEG
interaction score (4H335-AA): -1.5

B8: 4H1064-AA (peptide)
chain: DENAALEAEIAALEAKIAALEAKNAALKG
interaction score (4H1348-AA): 1.13
interaction score (4H971-AA): -1.08
interaction score (4H2283-AA): -1.69
interaction score (4H1360-AA): 0.702
interaction score (4H3709-AA): -0.57

B9: 4H1142-AA (peptide)
chain: DENAALEAEIAALKAKNAALEAKIAALKG
interaction score (4H1142-AA): 0.123

B10: 4H1626-AA (peptide)
chain: DENAALKAEIAALKAENAALKAEIAALKG
interaction score (4H3340-AA): -1.43
interaction score (4H688-AA): -1.19

B11: 4H3606-AA (peptide)
chain: DKNAALKAEIAALEAENAALEAKIAALKG
interaction score (P5-AA-1HAA-R): 2
interaction score (AP8-AA): -1.43
interaction score (AP6-AA): -0.593
interaction score (P5-AA-12HGe-H): 1.86
interaction score (P5-AA-12HGe-E): 0.858
interaction score (O5-AA): 2.23
interaction score (P5-AA-12HGe-Y): 2.52
interaction score (P5-AA-1HGe-T): 2.43
interaction score (P5-AA-1HGe-W): 2.27

B12: 4H249-AA (peptide)
chain: DEIAALEAENAALKAKNAALKAEIAALEG
interaction score (4H3340-AA): -1.45
interaction score (4H3974-AA): -0.0812
interaction score (4H688-AA): 0.32

Source: publication PMC10397247
